These results are taken from the supplement of paper PMC9112550, “Optimization of the antimicrobial peptide Bac7 by deep mutational scanning” (BMC Biology, 2022).

The test system of the series is Escherichia coli TOP10. The experiment in a line: shrunken log2 fold change of peptide-encoding DNA abundance (4.5 h post-induction vs induction); higher = less antimicrobial activity (less host growth inhibition). To be noted: time post-induction: 4.5 h; library: site-saturation at positions 5, 18, 19, 20.
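Further: peptides expressed intracellularly from a pBAD plasmid library in pooled LB shake-flask culture, induced with 0.3% L-arabinose, DNA abundance read by NGS, three biological replicates, DESeq2 with apeglm shrinkage.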

On to RRIRDRPPRLPRPRPRPEKDPRP, for which the “shrunken log2 fold change” value came out at 0.194.
The value for RRIRDRPPRLPRPRPRPQDCPRP was -0.00195; that for RRIRHRPPRLPRPRPRPHRLPRP was -0.0453.
The value for RRIRHRPPRLPRPRPRPNFCPRP was -0.0463; that for RRIRYRPPRLPRPRPRPEHDPRP was 0.0965; that for RRIRPRPPRLPRPRPRPQTRPRP was 0.227.
With RRIRSRPPRLPRPRPRPQQFPRP the figure was -0.123.
In the case of RRIRARPPRLPRPRPRPHYPPRP, the “shrunken log2 fold change” value was -1.36.
The value for RRIRWRPPRLPRPRPRPSFIPRP was -0.545; that for RRIRVRPPRLPRPRPRPWVKPRP was -0.235.
With RRIRGRPPRLPRPRPRPKGGPRP the figure was 0.901; with RRIRTRPPRLPRPRPRPLDTPRP, -0.566.
The value for RRIRMRPPRLPRPRPRPPWTPRP was 1.15; that for RRIRSRPPRLPRPRPRPLICPRP was -0.221.
As to RRIRHRPPRLPRPRPRPVNGPRP, the “shrunken log2 fold change” value is -0.0224.
RRIRYRPPRLPRPRPRPCHYPRP: the “shrunken log2 fold change” value is -0.00968.
On to RRIRGRPPRLPRPRPRPDWCPRP, for which the “shrunken log2 fold change” value is 1.37.
The value for RRIRRRPPRLPRPRPRPRVDPRP was 0.00278; that for RRIRNRPPRLPRPRPRPSIDPRP was -0.782.
With RRIRNRPPRLPRPRPRPDPGPRP the figure was 0.0569; with RRIRCRPPRLPRPRPRPIVGPRP, -0.477.
With RRIRDRPPRLPRPRPRPLHGPRP the figure was 0.01.
As for RRIRMRPPRLPRPRPRPKVYPRP, the “shrunken log2 fold change” value stood at 0.0391.
The value for RRIRHRPPRLPRPRPRPLYGPRP was -0.214; that for RRIRERPPRLPRPRPRPGPIPRP was 0.0264.
The value for RRIRCRPPRLPRPRPRPCCYPRP was -0.696; that for RRIRPRPPRLPRPRPRPFDLPRP was -0.736; that for RRIRTRPPRLPRPRPRPWMHPRP was 0.032.
The value for RRIRMRPPRLPRPRPRPLPNPRP was 0.098; that for RRIRMRPPRLPRPRPRPMTAPRP was 0.198; that for RRIRMRPPRLPRPRPRPLHTPRP was 2.66.
Turning to RRIRTRPPRLPRPRPRPVTTPRP, the “shrunken log2 fold change” value is -0.116.
The value for RRIRHRPPRLPRPRPRPDRWPRP was 0.255.
The value for RRIRYRPPRLPRPRPRPVMRPRP was 0.0461.
With RRIRYRPPRLPRPRPRPNFHPRP the figure was -0.612.
In the case of RRIRFRPPRLPRPRPRPCTQPRP, the “shrunken log2 fold change” value was -0.549.
With RRIRARPPRLPRPRPRPEWIPRP the figure was 0.129; with RRIRARPPRLPRPRPRPRDYPRP, 0.204; with RRIRARPPRLPRPRPRPLTYPRP, 0.0247.
The value for RRIRVRPPRLPRPRPRPHALPRP was -0.129; that for RRIRIRPPRLPRPRPRPCNVPRP was -0.449.
The value for RRIRIRPPRLPRPRPRPKPVPRP was 0.101; that for RRIRHRPPRLPRPRPRPTQMPRP was 0.222; that for RRIRWRPPRLPRPRPRPCNEPRP was -0.409.
Turning to RRIRTRPPRLPRPRPRPTWVPRP, the “shrunken log2 fold change” value is 0.149.
With RRIRFRPPRLPRPRPRPMTQPRP the figure was -0.421; with RRIRARPPRLPRPRPRPNCFPRP, 0.0761.
Turning to RRIRKRPPRLPRPRPRPYWMPRP, the “shrunken log2 fold change” value was -0.19.
RRIRWRPPRLPRPRPRPESFPRP: the “shrunken log2 fold change” value was 0.528.
With RRIRKRPPRLPRPRPRPYTCPRP, the “shrunken log2 fold change” value is -0.175.
With RRIRRRPPRLPRPRPRPQQKPRP the figure was 0.011; with RRIRARPPRLPRPRPRPSLDPRP, 0.735.
With RRIRHRPPRLPRPRPRPMPCPRP the figure was -0.105; with RRIRDRPPRLPRPRPRPENNPRP, 0.264; with RRIRERPPRLPRPRPRPCCPPRP, -0.159.
With RRIRWRPPRLPRPRPRPFRAPRP the figure was -0.112.
In the case of RRIRCRPPRLPRPRPRPPVKPRP, the “shrunken log2 fold change” value was -0.00107.
The value for RRIRSRPPRLPRPRPRPVFCPRP was -0.024; that for RRIRRRPPRLPRPRPRPICYPRP was -0.0102; that for RRIRNRPPRLPRPRPRPWWCPRP was -0.111.
With RRIRCRPPRLPRPRPRPTSDPRP the figure was 0.129; with RRIRSRPPRLPRPRPRPMAVPRP, -0.000652.
The value for RRIRKRPPRLPRPRPRPLPQPRP was 0.729; that for RRIRGRPPRLPRPRPRPFQQPRP was -0.0372.
Regarding RRIRYRPPRLPRPRPRPELWPRP, the “shrunken log2 fold change” value is 0.13.
Consider RRIRARPPRLPRPRPRPYQLPRP, for which the “shrunken log2 fold change” value is -0.215.
With RRIRLRPPRLPRPRPRPYTCPRP the figure was -0.223; with RRIRVRPPRLPRPRPRPTSYPRP, -0.45; with RRIRLRPPRLPRPRPRPDGHPRP, 0.0499.
With RRIRHRPPRLPRPRPRPGLGPRP the figure was 0.404; with RRIRQRPPRLPRPRPRPIVNPRP, -0.0197.
With RRIRQRPPRLPRPRPRPCCSPRP the figure was -0.0854; with RRIRMRPPRLPRPRPRPDRTPRP, 0.52; with RRIRPRPPRLPRPRPRPCFPPRP, -0.0413.
For the sequence RRIRIRPPRLPRPRPRPAESPRP, the “shrunken log2 fold change” value is 0.0486.
With RRIRNRPPRLPRPRPRPRQWPRP the figure was 0.299; with RRIRSRPPRLPRPRPRPNQLPRP, -0.218; with RRIRSRPPRLPRPRPRPPLYPRP, -0.0605.
Take RRIRTRPPRLPRPRPRPIFDPRP: the “shrunken log2 fold change” value is -0.337.
The value for RRIRQRPPRLPRPRPRPPKIPRP was 0.156; that for RRIRARPPRLPRPRPRPWSIPRP was -0.0906.
With RRIRLRPPRLPRPRPRPWRMPRP the figure was 0.0332; with RRIRFRPPRLPRPRPRPMDYPRP, -0.00172; with RRIRLRPPRLPRPRPRPREDPRP, 0.327.
For the sequence RRIRLRPPRLPRPRPRPEMRPRP, the “shrunken log2 fold change” value came out at 0.0659.
With RRIRTRPPRLPRPRPRPMKEPRP the figure was -0.164; with RRIRLRPPRLPRPRPRPGQCPRP, -0.0373.
With RRIRTRPPRLPRPRPRPPSWPRP the figure was 0.345; with RRIRERPPRLPRPRPRPVYPPRP, -0.335.
With RRIRKRPPRLPRPRPRPVKQPRP the figure was 0.0206; with RRIRERPPRLPRPRPRPFDSPRP, -1.81.
In the case of RRIRRRPPRLPRPRPRPQNHPRP, the “shrunken log2 fold change” value is -0.191.
With RRIRCRPPRLPRPRPRPVRNPRP the figure was 0.0515.
Turning to RRIRFRPPRLPRPRPRPWGKPRP, the “shrunken log2 fold change” value is -0.221.
With RRIRCRPPRLPRPRPRPYRNPRP the figure was 0.0132; with RRIRGRPPRLPRPRPRPRAEPRP, 1.01; with RRIRDRPPRLPRPRPRPEKKPRP, -0.0317.
With RRIRFRPPRLPRPRPRPEYNPRP the figure was -0.113; with RRIRYRPPRLPRPRPRPVRQPRP, 0.132.
Turning to RRIRFRPPRLPRPRPRPFKPPRP, the “shrunken log2 fold change” value was -0.147.
The value for RRIRMRPPRLPRPRPRPSWLPRP was 0.0725; that for RRIRCRPPRLPRPRPRPAKDPRP was 0.021; that for RRIRYRPPRLPRPRPRPRPPPRP was 1.01.
The value for RRIRMRPPRLPRPRPRPYATPRP was -0.0602; that for RRIRYRPPRLPRPRPRPDNWPRP was -0.38.
With RRIRNRPPRLPRPRPRPEGYPRP the figure was -0.169; with RRIRMRPPRLPRPRPRPRRVPRP, 1.3; with RRIRIRPPRLPRPRPRPAGMPRP, -0.0321.
With RRIRQRPPRLPRPRPRPHLLPRP, the “shrunken log2 fold change” value is 0.006.
With RRIRTRPPRLPRPRPRPNCWPRP the figure was 0.0359; with RRIRARPPRLPRPRPRPNPSPRP, 0.262; with RRIRYRPPRLPRPRPRPNCIPRP, -0.197.
As for RRIRVRPPRLPRPRPRPTWLPRP, the “shrunken log2 fold change” value stood at 0.318.
For RRIRVRPPRLPRPRPRPRDKPRP, the “shrunken log2 fold change” value was -0.179.
The value for RRIRFRPPRLPRPRPRPLDHPRP was -0.359.
In the case of RRIRLRPPRLPRPRPRPVFHPRP, the “shrunken log2 fold change” value was -0.143.
Consider RRIRFRPPRLPRPRPRPMGIPRP, for which the “shrunken log2 fold change” value is -0.23.
On to RRIRLRPPRLPRPRPRPIFFPRP, for which the “shrunken log2 fold change” value was determined as 0.103.
The value for RRIRERPPRLPRPRPRPSRLPRP was 0.0431.
On to RRIRSRPPRLPRPRPRPVVPPRP, for which the “shrunken log2 fold change” value worked out at 0.0433.
The value for RRIRIRPPRLPRPRPRPCVSPRP was -0.012; that for RRIRKRPPRLPRPRPRPDKDPRP was -0.0555; that for RRIRWRPPRLPRPRPRPTEMPRP was -0.00675.
On to RRIRERPPRLPRPRPRPSCLPRP, for which the “shrunken log2 fold change” value was -0.484.
Take RRIRRRPPRLPRPRPRPFEEPRP: the “shrunken log2 fold change” value is 0.251.
